Source: US20220025023A1 (AC IMMUNE, published 2022)
Where a chain is given by its changes, count along the chain named.

T1: TDP-210 peptide (human)
T1 construct: 8-mer of human TDP-43; same ELISA method as for the biotinylated 15-mers
T1 peptide: FFSQYGDV

T2: TDP-213 peptide (human)
T2 construct: 8-mer of human TDP-43; same ELISA method as for the biotinylated 15-mers
T2 peptide: QYGDVMDV

T3: TDP-214 peptide (human)
T3 construct: 8-mer of human TDP-43; same ELISA method as for the biotinylated 15-mers
T3 peptide: YGDVMDVF

T4: TDP-216 peptide (human)
T4 construct: 8-mer of human TDP-43; same ELISA method as for the biotinylated 15-mers
T4 peptide: DVMDVFIP

T5: TDP-217 peptide (human)
T5 construct: 8-mer of human TDP-43; same ELISA method as for the biotinylated 15-mers
T5 peptide: VMDVFIPK

T6: TDP-222 peptide (human)
T6 construct: 8-mer of human TDP-43; same ELISA method as for the biotinylated 15-mers
T6 peptide: IPKPFRAF

T7: TDP-224 peptide (human)
T7 construct: 8-mer of human TDP-43; same ELISA method as for the biotinylated 15-mers
T7 peptide: KPFRAFAF

B1: ACI-7062-406E3-Ab1 (antibody, IgG2a, V domains shown)
VH: QVTLKESGPAILQPSQTLSLTCSFSGFSLTTYGIGVGWIRQPSGKGLEWLAHIWWNDNKYYNTALKSRLTVSKDTSNNQVFLKIASVDTADTATYYCARVYGNLYYFAYWGQGTTLTVSS
VL: DVLMTQTPLSLPVSLGDRASISCRSSQSIVHRSGNTYLEWYLQKPGQSPKLLIYKVSNRFSGVPDRFSGSGSGTDFTLKISRVEAEDLGVYYCFQGSHVPTFGAGTKLELKR
notes: also called 406E3D5; clone 5
B2: ACI-7062-406E3-Ab2 (antibody, IgG2a, V domains shown)
VH: B1 VH
VL: B1 VL
notes: also called 406E3G10; clone 6
B3: ACI-7062-416A11-Ab1 (antibody, IgG2a, V domains shown)
VH: B1 VH with A10G, P14S, T30S, V71I, T92A, A108G
VL: B1 VL with R32S, H98R
notes: also called 416A11B3; clone 18
B4: ACI-7062-410H3-Ab1 (antibody, IgG1, V domains shown)
VH: DVQLVESGGGLVQPGGSRRLSCAASGFTFSSFGMHWVRQAPEKGLEWVAYIRSGSDIIYYADSVKGRFTISRDNPENTLFLQMTSLRSEDTAMYYCARSGTTVPFDYWGQGTSLTVSS
VL: DIVMTQSPSSLAMSVGQKVTMSCKSSQSLLNSGNQKNYLAWYQQKPGQSPELLLYFASTRASGVPDRFIGSGSGTDFTLTISSVQAEDLADYFCQQHYSIPLTFGAGTKLELKR
notes: also called 410H3B9; clone 7
B5: ACI-7062-412A7-Ab1 (antibody, IgG2b, V domains shown)
VH: B4 VH
VL: B4 VL
notes: also called 412A7B7; clone 9

Biological target: T1, TDP-210 peptide
Experiment: indirect ELISA, 8-mer peptide library
Method in brief: (§1)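 Hybridoma supernatant antibodies were tested by indirect ELISA on streptavidin-captured biotinylated 8-mer peptides with 7 aa overlap spanning human TDP-43 aa 210–231. Antibody binding was 2 h at 37 °C, then AP-conjugated anti-mouse IgG (1/1000, 1 h, 37 °C) was added. Read-out was pNPP absorbance at 405 nm.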

binding result | Binder
no binding | B1
no binding | B2
no binding | B3
no binding | B4
no binding | B5

Biological target: T2, TDP-213 peptide
Experiment: indirect ELISA, 8-mer peptide library
Method in brief: as §1

binding result | Binder
no binding | B1
no binding | B2
no binding | B3
no binding | B4
no binding | B5

Biological target: T3, TDP-214 peptide
Experiment: indirect ELISA, 8-mer peptide library
Method in brief: as §1

binding result | Binder
no binding | B1
no binding | B2
no binding | B3
no binding | B4
no binding | B5

Biological target: T4, TDP-216 peptide
Experiment: indirect ELISA, 8-mer peptide library
Method in brief: as §1

binding result | Binder
no binding | B1
no binding | B2
no binding | B3

Biological target: T5, TDP-217 peptide
Experiment: indirect ELISA, 8-mer peptide library
Method in brief: as §1

binding result | Binder
no binding | B1
no binding | B2
no binding | B3
no binding | B4
no binding | B5

Biological target: T6, TDP-222 peptide
Experiment: indirect ELISA, 8-mer peptide library
Method in brief: as §1

binding result | Binder
no binding | B1
no binding | B2
no binding | B3
no binding | B4
no binding | B5

Biological target: T7, TDP-224 peptide
Experiment: indirect ELISA, 8-mer peptide library
Method in brief: as §1

binding result | Binder
no binding | B1
no binding | B2
no binding | B3
no binding | B4
no binding | B5

biological target: T8, recombinant human full-length TDP-43 (human, UniProt Q13148 1-414); experiment: Luminex bead assay, antibody serial dilution, FL TDP-43 beads
T8 construct: Recombinant full-length protein; also called FL TDP-43; recFL TDP-43
T8 sequence (Q13148 whole entry): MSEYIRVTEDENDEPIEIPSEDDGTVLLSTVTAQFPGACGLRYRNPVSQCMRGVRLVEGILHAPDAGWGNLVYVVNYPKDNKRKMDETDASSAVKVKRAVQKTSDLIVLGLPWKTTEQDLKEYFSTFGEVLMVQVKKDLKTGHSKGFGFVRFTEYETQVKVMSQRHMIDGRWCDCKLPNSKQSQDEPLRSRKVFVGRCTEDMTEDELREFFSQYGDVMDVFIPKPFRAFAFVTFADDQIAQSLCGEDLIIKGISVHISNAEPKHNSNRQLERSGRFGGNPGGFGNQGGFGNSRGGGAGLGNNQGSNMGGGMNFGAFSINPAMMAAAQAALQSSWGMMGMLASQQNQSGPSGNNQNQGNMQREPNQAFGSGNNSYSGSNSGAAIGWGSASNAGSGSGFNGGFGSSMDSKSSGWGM

EC50 [nM] | Binder
< 0.01 | B1
0.01 | B2
0.015 | B3
0.03 | B4
0.03 | B5

biological target: T9, BSA (bovine, UniProt P02769); experiment: indirect ELISA, control coat in the 15-mer series, hybridoma supernatant
T9 construct: not specified; also called bovine serum albumin
T9 sequence (P02769 25-607 limits assumed): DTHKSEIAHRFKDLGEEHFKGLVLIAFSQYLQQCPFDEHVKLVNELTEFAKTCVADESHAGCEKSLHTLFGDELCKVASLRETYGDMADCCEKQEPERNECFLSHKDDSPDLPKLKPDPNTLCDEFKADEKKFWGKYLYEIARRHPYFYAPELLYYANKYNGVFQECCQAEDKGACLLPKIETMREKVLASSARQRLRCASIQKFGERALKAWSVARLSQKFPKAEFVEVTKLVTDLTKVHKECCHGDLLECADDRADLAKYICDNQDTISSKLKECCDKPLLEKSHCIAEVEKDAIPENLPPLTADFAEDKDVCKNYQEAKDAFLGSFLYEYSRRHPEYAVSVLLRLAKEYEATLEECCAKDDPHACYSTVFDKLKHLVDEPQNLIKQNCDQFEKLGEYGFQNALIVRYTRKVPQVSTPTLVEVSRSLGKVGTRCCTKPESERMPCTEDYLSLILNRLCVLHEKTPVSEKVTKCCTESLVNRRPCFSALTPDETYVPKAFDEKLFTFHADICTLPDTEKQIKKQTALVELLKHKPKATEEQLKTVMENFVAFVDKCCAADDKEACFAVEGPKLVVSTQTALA

binding result | Binder
no binding | B1
no binding | B2
no binding | B3
no binding | B4
no binding | B5

biological target: T10, aggregated recombinant human FL TDP-43 (human, UniProt Q13148 1-414); experiment: SPR avidity (Biacore T200), aggregated TDP-43 immobilised, antibody as analyte, 1:1 model
T10 construct: also called TDP-43 aggregates
Method: Avidity measurements were performed on an SPR instrument (Biacore T200, GE Healthcare Life Sciences) using CM5 Series S sensor chips. Recombinant human FL TDP-43 monomers or aggregated recombinant human FL TDP-43 was immobilized on a CM5 chip using amine coupling, injecting at a flow rate of 5 μl/min for 420 seconds. Conditions were optimized so that less than 200 RU protein was immobilized. Binding of the antibodies and the control antibody (2E2-D3) were obtained by injecting at: 1.37, 4.11, 12.33, 37, 111, and 333 nM in 1×PBS P+ at a flow rate of 50 μl/min for 90 s contact time and 600 s dissociation phase, with three regeneration cycles of the ligand surface by 10 mM Glycine-HCl (pH 1.7). Kinetics were analyzed using a 1:1 fitting model (see FIG. 8).

T10 sequence (Q13148 whole entry): as the sequence (Q13148 whole entry) above

Kd [nM] | Binder
0.2 | B1
0.4 | B2
1.2 | B3
19.2 | B4
0.3 | B5

biological target: T8, recombinant human full-length TDP-43; experiment: SPR affinity (Biacore 8K), antibody captured on anti-mouse IgG, TDP-43 monomer as analyte, single cycle kinetics, 1:1 model
Method: Binding affinity to FL TDP-43 was evaluated by determining the dissociation constant (KD) using surface plasmon resonance (SPR; Biacore 8K, GE Healthcare Life Sciences). Anti-mouse IgG was immobilized on a CM5 Series S sensor chip (GE Healthcare Life Sciences) by amine coupling. Immobilization of andi-IgG was done at a concentration of 30 μg/ml in 10 mM sodium acetate (pH 5.5) with a flow rate of 10 μl/min for 500 s. The purified antibodies being tested, and the control antibody (2E2-D3), were injected at a concentration of 1 μg/ml at a flow rate of 10 μl/min for 500 s in 10 mM Na-acetate (pH 5.5). To evaluate KDs, recombinant human FL TDP-43 monomer analyte was injected at […] starting from 400 nM and diluting down to 1.6 nM using single cycle kinetics. The protein analyte was injected at a flow rate of 20 μl/min for 600 s contact time and a 1200 s dissociation phase, without intermediate regeneration steps. Result obtained from kinetics was evaluated using a 1:1 binding model analysis.

Kd [nM] | Binder
193 | B1
101 | B2
307 | B3
242 | B4
66.1 | B5
